Assay results published in patent publication US20100310561A1, “NATRIURETIC FUSION PROTEINS” (BOEHRINGER INGELHEIM INTERNATIONAL GMBH, priority 2007, published 2010).

B1: ANPXY-L6-Fc2AB (protein)
chain: SLRRSSCFGGRMDRIGAQSGLGCNSFRYGGSGGSGGSGGSGGSGGSGGCPPCPAPPVAGPSVFLFPPKPKDTLMISRTPEVTCVVVDVSHEDPEVQFNWYVDGVEVHNAKTKPREEQFNSTFRVVSVLTVVHQDWLNGKEYKCKVSNKGLPAPIEKTISKTKGQPREPQVYTLPPSREEMTKNQVSLTCLVKGFYPSDIAVEWESNGQPENNYKTTPPMLDSDGSFFLYSKLTVDKSRWQQGNVFSCSVMHEALHNHYTQKSLSLSPGK
modifications: Synthesized ANPxy-L6-Fc2ab
B2: ANPXY-L4-Fc2AB (protein)
chain: SLRRSSCFGGRMDRIGAQSGLGCNSFRYGGSGGSGGSGGCPPCPAPPVAGPSVFLFPPKPKDTLMISRTPEVTCVVVDVSHEDPEVQFNWYVDGVEVHNAKTKPREEQFNSTFRVVSVLTVVHQDWLNGKEYKCKVSNKGLPAPIEKTISKTKGQPREPQVYTLPPSREEMTKNQVSLTCLVKGFYPSDIAVEWESNGQPENNYKTTPPMLDSDGSFFLYSKLTVDKSRWQQGNVFSCSVMHEALHNHYTQKSLSLSPGK
modifications: Synthesized ANPxy-L4-Fc2ab (protein)

Assay: Single-dose rat PK study of recombinant ANP-Fc fusions, i.v. or s.c.
Format: in vivo
Conditions: 1 mg/kg, Sprague Dawley rats
Method: The pharamacokinetics of the recombinant ANP-Fc fusion candidates were assessed by running a single-dose rat PK study. Single bolus injections of ANP-Fc fusions at 1 mg/kg dose were given to Sprague Dawley rats via i.v. or s.c. injection. Vehicle control PBS injections were given to a control group of animals. […] Animals were sampled for 1 week with a contingency group going up to 3 weeks. After sampling the animals were quarantined and the plasma samples with EDTA and Aprotinin are assayed in a sandwich ELISA where the ANP is captured with a monoclonal antibody and detected with an anti-human Fc antibody. The ELISA has a sensitivity of 1 ng/mL and may be used to detect ANP-Fc fusion proteins in rat plasma. This rat PK data permits the comparison of the in vivo half-life of the ANP-Fc fusion proteins to that of the native ligand, hANP28.

| Molecule | half-life (T½) (intravenous bolus) [h] | mean resonance time (MRT) (intravenous bolus) [h] | volume of distribution (Vss) (intravenous bolus) [L/kg] | area under the curve (AUC) (subcutaneous) [ng·h/mL] | half-life (T½) (subcutaneous) [h] | maximum serum concentration obtained (Cmax) (subcutaneous) [ng/mL] | percent bioavailability (% F) (subcutaneous) [%] |
| --- | --- | --- | --- | --- | --- | --- | --- |
| B1 | 11.7 | 3.08 | 0.76 | 2202 | 20.6 | 44 | 26.3 |
| B2 | 16.8 | 3.91 | 0.61 | 2671 | 23.1 | 53.5 | 20.6 |
